T1: full-length beta-Catenin (Uniprot ID P35222) (Homo sapiens (Human), UniProt P35222 2-781)
T1 construct: Used full-length in both the FP and the AlphaScreen assay; also called B-Catenin; bCat
T1 sequence: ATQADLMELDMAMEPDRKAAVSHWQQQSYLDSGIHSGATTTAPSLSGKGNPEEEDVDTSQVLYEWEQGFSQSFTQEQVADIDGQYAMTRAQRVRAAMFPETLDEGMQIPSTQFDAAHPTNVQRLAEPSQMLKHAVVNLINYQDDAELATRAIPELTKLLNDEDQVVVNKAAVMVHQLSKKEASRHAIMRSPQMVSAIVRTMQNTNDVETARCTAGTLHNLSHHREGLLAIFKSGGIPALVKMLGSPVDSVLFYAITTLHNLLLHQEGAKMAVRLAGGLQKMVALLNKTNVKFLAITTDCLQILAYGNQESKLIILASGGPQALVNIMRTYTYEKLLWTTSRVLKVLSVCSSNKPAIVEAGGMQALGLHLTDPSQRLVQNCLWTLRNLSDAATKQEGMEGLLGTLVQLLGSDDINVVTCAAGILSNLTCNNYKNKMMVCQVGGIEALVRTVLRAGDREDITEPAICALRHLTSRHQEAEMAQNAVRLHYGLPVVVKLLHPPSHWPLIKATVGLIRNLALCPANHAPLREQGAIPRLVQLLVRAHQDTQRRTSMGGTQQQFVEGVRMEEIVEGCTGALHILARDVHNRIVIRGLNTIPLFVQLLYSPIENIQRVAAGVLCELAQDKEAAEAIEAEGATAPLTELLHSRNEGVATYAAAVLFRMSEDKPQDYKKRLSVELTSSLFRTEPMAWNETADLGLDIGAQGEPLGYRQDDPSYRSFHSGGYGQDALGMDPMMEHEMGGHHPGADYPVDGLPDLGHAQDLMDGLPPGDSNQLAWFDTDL

B1: I-89 (peptide)
peptide: Ac-FDA[R8]DDAAFV[PyrS″][Phe(4-CONH2)]WQ-NH2
modifications: staple 4-11; not fully specified; printed as Ac-Phe-Asp-Ala-R8-Asp-Asp-Ala-Ala-Phe-Val-PyrS-4CBMF-Trp-Gln-NH2
notes: Stapled peptide; also called Ac-Phe-Asp-Ala-R8-Asp-Asp-Ala-Ala-Phe-Val-PyrS-4CBMF-Trp-Gln-NH2
B2: I-88 (peptide)
peptide: Ac-FDA[R8]DDAA[3Pal]V[PyrS″]FWQ-NH2
modifications: staple 4-11; not fully specified; printed as Ac-Phe-Asp-Ala-R8-Asp-Asp-Ala-Ala-3PyrA-Val-PyrS-Phe-Trp-Gln-NH2
notes: Stapled peptide; also called Ac-Phe-Asp-Ala-R8-Asp-Asp-Ala-Ala-3PyrA-Val-PyrS-Phe-Trp-Gln-NH2
B3: I-75 (peptide)
peptide: Ac-FDA[R8]DDAA[Cha]V[PyrS″]FWQ-NH2
modifications: staple 4-11; not fully specified; printed as Ac-Phe-Asp-Ala-R8-Asp-Asp-Ala-Ala-Cha-Val-PyrS-Phe-Trp-Gln-NH2
notes: Stapled peptide; also called Ac-Phe-Asp-Ala-R8-Asp-Asp-Ala-Ala-Cha-Val-PyrS-Phe-Trp-Gln-NH2
B4: I-84 (peptide)
peptide: Ac-FDA[R8]DDAAFV[PyrS″][4Pal]WQ-NH2
modifications: staple 4-11; not fully specified; printed as Ac-Phe-Asp-Ala-R8-Asp-Asp-Ala-Ala-Phe-Val-PyrS-4PyrA-Trp-Gln-NH2
notes: Stapled peptide; also called Ac-Phe-Asp-Ala-R8-Asp-Asp-Ala-Ala-Phe-Val-PyrS-4PyrA-Trp-Gln-NH2
B5: I-80 (peptide)
peptide: Ac-FDA[R8]DDAAFV[PyrS][2Pal]WQ-NH2
modifications: staple 4-11
notes: Stapled peptide; also called Ac-Phe-Asp-Ala-R8-Asp-Asp-Ala-Ala-Phe-Val-PyrS-2PyrA-Trp-Gln-NH2
B6: I-82 (peptide)
peptide: Ac-FDA[R8]DDAAFV[PyrS″][3Pal]WQ-NH2
modifications: staple 4-11
notes: Stapled peptide; also called Ac-Phe-Asp-Ala-R8-Asp-Asp-Ala-Ala-Phe-Val-PyrS-3PyrA-Trp-Gln-NH2
B7: I-86 (peptide)
peptide: Ac-FDA[R8]DDAA[2Pal]V[PyrS]FWQ-NH2
modifications: staple 4-11
notes: Stapled peptide; also called Ac-Phe-Asp-Ala-R8-Asp-Asp-Ala-Ala-2PyrA-Val-PyrS-Phe-Trp-Gln-NH2
B8: I-83 (peptide)
peptide: Ac-FDA[R8]DDAAFV[PyrS][3Pal]WQ-NH2
modifications: staple 4-11
notes: as for B6
B9: I-81 (peptide)
peptide: Ac-FDA[R8]DDAAFV[PyrS″][2Pal]WQ-NH2
modifications: staple 4-11
notes: as for B5
B10: I-77 (peptide)
peptide: Ac-FDA[R8]DDAA[Phe(3-F)]V[PyrS]FWQ-NH2
modifications: staple 4-11
notes: Stapled peptide; also called Ac-Phe-Asp-Ala-R8-Asp-Asp-Ala-Ala-3FF-Val-PyrS-Phe-Trp-Gln-NH2
B11: I-85 (peptide)
peptide: Ac-FDA[R8]DDAAFV[PyrS][4Pal]WQ-NH2
modifications: staple 4-11; not fully specified; printed as Ac-Phe-Asp-Ala-R8-Asp-Asp-Ala-Ala-Phe-Val-PyrS-4PyrA-Trp-Gln-NH2
notes: as for B4
B12: I-76 (peptide)
peptide: Ac-FDA[R8]DDAA[Nle]V[PyrS(3)]FWQ-NH2
modifications: staple 4-11
notes: Stapled peptide; also called Ac-Phe-Asp-Ala-R8-Asp-Asp-Ala-Ala-nLeu-Val-PyrS-Phe-Trp-Gln-NH2
B13: I-74 (peptide)
peptide: Ac-FDA[R8]DDAA[Cha]V[PyrS″]FWQ-NH2
modifications: staple 4-11; not fully specified; printed as Ac-Phe-Asp-Ala-R8-Asp-Asp-Ala-Ala-Cha-Val-PyrS-Phe-Trp-Gln-NH2
notes: as for B3
B14: I-90 (peptide)
peptide: Ac-FDA[R8]DDAAFV[PyrS″][Phe(4-CONH2)]WQ-NH2
modifications: staple 4-11
notes: as for B1
B15: I-79 (peptide)
peptide: Ac-FDA[R8]DDAA[Phe(3,4-F2)]V[PyrS]FWQ-NH2
modifications: staple 4-11
notes: Stapled peptide; also called Ac-Phe-Asp-Ala-R8-Asp-Asp-Ala-Ala-34FF-Val-PyrS-Phe-Trp-Gln-NH2
B16: I-87 (peptide)
peptide: Ac-FDA[R8]DDAA[3Pal]V[PyrS″]FWQ-NH2
modifications: staple 4-11; not fully specified; printed as Ac-Phe-Asp-Ala-R8-Asp-Asp-Ala-Ala-3PyrA-Val-PyrS-Phe-Trp-Gln-NH2
notes: as for B2

Starred links: 1 amine or outer side, 2 acyl side, 3 side chain; linkers in the order of their positions; H or OH if unused. Positions of bridges follow the written chain, without caps; N, C: chain ends. Non-standard residues stand in square brackets, D forms with d. Primed or numbered codes have the meaning given here. PyrS(3) = (S)-1-((allyloxy)carbonyl)-3-aminopyrrolidine-3-carboxylic acid, stapling residue, C=CCOC(=O)N1CC[C@@](N[*:1])(C(=O)[*:2])C1; PyrS″ = (S)-1-((allyloxy)carbonyl)-3-aminopyrrolidine-3-carboxylic acid (stapling residue), C=CCOC(=O)N1CC[C@@](N[*:1])(C(=O)[*:2])C1; PyrS = (S)-1-((allyloxy)carbonyl)-3-aminopyrrolidine-3-carboxylic acid, C=CCOC(=O)N1CC[C@@](N[*:1])(C(=O)[*:2])C1; Phe(4-CONH2) = NC(=O)c1ccc(C[C@H](N)C(=O)O)cc1; Phe(3,4-F2) = N[C@@H](Cc1ccc(F)c(F)c1)C(=O)O; Phe(3-F) = N[C@@H](Cc1cccc(F)c1)C(=O)O; 2Pal = N[C@@H](Cc1ccccn1)C(=O)O; 3Pal = N[C@@H](Cc1cccnc1)C(=O)O; 4Pal = N[C@@H](Cc1ccncc1)C(=O)O; R8 = C=CCCCCCC[C@@](C)(N)C(=O)O; Cha = N[C@@H](CC1CCCCC1)C(=O)O; Nle = CCCC[C@H](N)C(=O)O

This assay deals with T1, full-length beta-Catenin (Uniprot ID …). The experiment in a line: AlphaScreen competition; full-length beta-catenin, biotin-TCF4(10-53) probe. On the procedure:
Equal volume of the titrated peptide was added to the plate and incubated for 15 minutes at 20° C. Then 4 uL of donor and 4 uL acceptor beads at 10 ug/mL were added to the plate, for a 16 uL reaction pool and protected from light for 60 minutes at 20° C. prior to read. Reads were performed on a CLARIOstar plate reader (BMG Labtech) in duplicate, and data were fitted to a 1:1 binding model with hill slope using an in-house script. All provided concentrations are final concentrations.
For B1, the midpoint of the response, the EC50, lay at 5.64 µM.
The value for B2 was at least 10 µM.
The value for B3 was at least 10 µM.
Next, B4: at least 10 µM; B5: at least 10 µM.
Turning to B6, the 50% effective concentration (EC50) was at least 10 µM.
Next, B7: at least 10 µM; B8: at least 10 µM.
Next, B9: 9.78 µM.
The value for B10 was at least 10 µM; that for B11 was at least 10 µM; that for B12 was at least 10 µM.
The molecule B13 came in with an EC50 of at least 10 µM.
The value for B14 was at least 10 µM; that for B15 was 3.97 µM; that for B16 was at least 10 µM.
